# Residue numbers refer to the chain shown, from its start. *1 amine or outer side, *2 acyl side, *3 side chain or, on linkers, in order; H or OH if unused. Where no end group is shown, it is not given here. Side-chain parts run from the residue outwards. [ ]: non-standard residue; d: D form. The star is where a group is joined. αMePhe(2-F) = C[C@](N)(Cc1ccccc1F)C(=O)O; γGlu = O=C(O)[C@H](CCC(=O)[*:2])N[*:1]; C14 diacid = O=C(O)CCCCCCCCCCCCC(=O)*; εLys = N[C@@H](CCCCN[*:1])C(=O)[*:2]; αMeY = C[C@](N)(Cc1ccc(O)cc1)C(=O)O; αMeL = CC(C)C[C@](C)(N)C(=O)O; Orn = NCCC[C@H](N)C(=O)O; AEEA = NCCOCCOCC(=O)O; Aib = CC(C)(N)C(=O)O
# T1: human glucose-dependent insulinotropic polypeptide (GIP) receptor (human, UniProt P48546 22-466)
# T1 sequence (looked up): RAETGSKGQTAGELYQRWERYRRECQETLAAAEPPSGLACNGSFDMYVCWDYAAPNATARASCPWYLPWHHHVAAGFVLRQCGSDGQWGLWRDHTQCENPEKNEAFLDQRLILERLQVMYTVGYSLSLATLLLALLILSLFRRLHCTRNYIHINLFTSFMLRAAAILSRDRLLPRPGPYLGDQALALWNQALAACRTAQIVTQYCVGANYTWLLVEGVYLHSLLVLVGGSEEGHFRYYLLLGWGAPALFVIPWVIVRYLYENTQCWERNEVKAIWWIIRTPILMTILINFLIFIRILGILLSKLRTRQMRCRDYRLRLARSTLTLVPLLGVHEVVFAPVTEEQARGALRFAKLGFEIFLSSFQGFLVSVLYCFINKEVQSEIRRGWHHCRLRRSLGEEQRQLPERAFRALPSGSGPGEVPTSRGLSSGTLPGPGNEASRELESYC
# B1: Example 159 (peptide)
# peptide: YXEGTXTSDXSIXLDXKAQXEFIEXLIEGGKSSGAPPPS
# modifications: Aib2, αMeF(2F)6, 4Pal10, αMeL13, Orn16, K17(Z), Aib20, αMeF25, K31(Z), C-terminal NH2; Z = AEEA2-(γ-Glu)-CO-(CH2)12-CO2H
# B2: Example 173 (peptide)
# peptide: B1 peptide with F22X, E24X
# modifications: Aib2, αMeF6, 4Pal10, αMeL13, Orn16, K17(Z), Aib20, αMeF22, D-Glu24, αMeY25, K31(Z), C-terminal NH2; Z = AEEA2-(γ-Glu)-CO-(CH2)10-CH3
# B3: Example 161 (peptide)
# peptide: B1 peptide with E24K, K31P
# modifications: Aib2, aMeF(2F)6, 4Pal10, aMeL13, Orn16, K17(Z), Aib20, K24(Z), αMeY25, C-terminal NH2; Z = eK-gE-C14_OH (so in the source)
# B4: Example 172 (peptide)
# peptide: B1 peptide with E24X
# modifications: Aib2, αMeF6, 4Pal10, αMeL13, Orn16, K17(Z), Aib20, D-Glu24, αMeY25, K31(Z), C-terminal NH2; Z = AEEA2-(γ-Glu)-CO-(CH2)10-CH3
# B5: Example 169 (peptide)
# peptide: B1 peptide with E24X
# modifications: Aib2, αMeF(2F)6, 4Pal10, αMeL13, Orn16, K17(Z), aMeF20, D-Glu24, αMeY25, K31(Z), C-terminal NH2; Z = AEEA2-(γ-Glu)-CO-(CH2)12-CO2H
# B6: Example 160 (peptide)
# peptide: B1 peptide with E24K, K31P
# modifications: Aib2, αMeF(2F)6, 4Pal10, αMeL13, Orn16, K17(Z), Aib20, K24(Z), αMeY25, C-terminal NH2; Z = AEEA2-(εK)-CO-(CH2)12-CO2H
# B7: Example 171 (peptide)
# peptide: B1 peptide with E24X
# modifications: Aib2, αMeF(2F)6, 4Pal10, αMeL13, Orn16, K17(Z), Ac6c20, D-Glu24, αMeY25, K31(Z), C-terminal NH2; Z = AEEA2-(γ-Glu)-CO-(CH2)12-CO2H
# B8: Example 179 (peptide)
# peptide: B1 peptide with X10V, E24X
# modifications: Aib2, αMeF6, αMeL13, Orn16, K17(Z), Aib20, D-Glu24, αMeY25, K31(Z), C-terminal NH2; Z = AEEA2-(γ-Glu)-CO-(CH2)12-CO2H
# B9: Example 162 (peptide)
# peptide: B1 peptide with E24K, K31P
# modifications: Aib2, αMeF(2F)6, 4Pal10, αMeL13, Orn16, K17(Z), Aib20, K24(Z), αMeY25, C-terminal NH2; Z = (εK)-(εK)-(γ-Glu)-CO-(CH2)12-CO2H
# B10: Example 170 (peptide)
# peptide: B1 peptide with E24X
# modifications: Aib2, αMeF(2F)6, 4Pal10, αMeL13, Orn16, K17(Z), Ac5c20, D-Glu24, αMeY25, K31(Z), C-terminal NH2; Z = AEEA2-(γ-Glu)-CO-(CH2)12-CO2H
# B11: Example 174 (peptide)
# peptide: B1 peptide with F22X, E24X
# modifications: Aib2, αMeF6, 4Pal10, αMeL13, Orn16, K17(Z), Aib20, αMeF22, D-Glu24, αMeF25, K31(Z), C-terminal NH2; Z = AEEA2-(γ-Glu)-CO-(CH2)10-CH3
# Target: human glucagon-like peptide-1 (GLP-1) receptor (human, UniProt P43220 24-463)
# Assay: cell-based or functional assay
Binder,cAMP EC50 [nM],cAMP Emax [%]
B1,0.558,89.4
B2,0.343,89.9
B3,0.203,
B4,0.141,
B5,1.23,
B6,0.228,
B7,1.7,
B8,0.461,99
B9,0.327,
B10,1.03,
B11,0.33,98.2
Y[Aib]EGT[αMePhe(2-F)]TSDV[Aib]I[αMeL]LD[Orn]K([εLys-γGlu-C14 diacid])AQ[Aib]EFIK([εLys-γGlu-C14 diacid])[αMeY]LIEGGPSSGAPPPS-NH2 [Example 167],0.217,91.4
Y[Aib]EGT[αMePhe(2-F)]TSDV[Aib]I[αMeL]LD[Orn]K([εLys-εLys-γGlu-C14 diacid])AQ[Aib]EFIK([εLys-εLys-γGlu-C14 diacid])[αMeY]LIEGGPSSGAPPPS-NH2 [Example 168],0.312,93.3
Y[Aib]EGT[αMePhe(2-F)]TSDV[Aib]I[αMeL]LD[Orn]K([AEEA-AEEA-εLys-C14 diacid])AQ[Aib]EFIK([AEEA-AEEA-εLys-C14 diacid])[αMeY]LIEGGPSSGAPPPS-NH2 [Example 166],0.192,90.3

# Target: T1, human glucose-dependent insulinotropic …
# Assay: cell-based or functional assay
Binder,cAMP EC50 [nM],cAMP Emax [%]
B1,0.0198,95.3
B2,0.0155,87.8
B3,0.0207,
B4,0.0149,
B5,0.0381,
B6,0.0197,
B7,0.0389,
B8,0.15,91
B9,0.022,89.7
B10,0.0244,
B11,0.0284,92.2
Y[Aib]EGT[αMePhe(2-F)]TSDV[Aib]I[αMeL]LD[Orn]K([εLys-γGlu-C14 diacid])AQ[Aib]EFIK([εLys-γGlu-C14 diacid])[αMeY]LIEGGPSSGAPPPS-NH2 [Example 167],0.0534,99.5
Y[Aib]EGT[αMePhe(2-F)]TSDV[Aib]I[αMeL]LD[Orn]K([εLys-εLys-γGlu-C14 diacid])AQ[Aib]EFIK([εLys-εLys-γGlu-C14 diacid])[αMeY]LIEGGPSSGAPPPS-NH2 [Example 168],0.0482,93
Y[Aib]EGT[αMePhe(2-F)]TSDV[Aib]I[αMeL]LD[Orn]K([AEEA-AEEA-εLys-C14 diacid])AQ[Aib]EFIK([AEEA-AEEA-εLys-C14 diacid])[αMeY]LIEGGPSSGAPPPS-NH2 [Example 166],0.0774,97

# Target: human glucagon receptor (human, UniProt P47871 26-477)
# Assay: cell-based or functional assay
row,Binder,cAMP EC50 [nM]
1,B1,> 9950
2,B2,> 9950
3,B3,> 9950
4,B4,> 9950
5,B5,> 9950
6,B6,> 9950
7,B7,> 9950
8,B8,> 9950
9,B9,> 9950
10,B10,> 9950
11,B11,> 9950
12,Y[Aib]EGT[αMePhe(2-F)]TSDV[Aib]I[αMeL]LD[Orn]K([εLys-γGlu-C14 diacid])AQ[Aib]EFIK([εLys-γGlu-C14 diacid])[αMeY]LIEGGPSSGAPPPS-NH2 [Example 167],> 9950
13,Y[Aib]EGT[αMePhe(2-F)]TSDV[Aib]I[αMeL]LD[Orn]K([εLys-εLys-γGlu-C14 diacid])AQ[Aib]EFIK([εLys-εLys-γGlu-C14 diacid])[αMeY]LIEGGPSSGAPPPS-NH2 [Example 168],> 9950
14,Y[Aib]EGT[αMePhe(2-F)]TSDV[Aib]I[αMeL]LD[Orn]K([AEEA-AEEA-εLys-C14 diacid])AQ[Aib]EFIK([AEEA-AEEA-εLys-C14 diacid])[αMeY]LIEGGPSSGAPPPS-NH2 [Example 166],> 9950

# Source: patent US20230265151A1, “GIP/GLP1 CO-AGONIST COMPOUNDS” (priority 2020, published 2023)
